Laboratory results as given in article PMC10085679, “Filament assembly underpins the double-stranded DNA specificity of AIM2-like receptors”.

Legend:
IFI16HinAB [1] = biological target: T1, IFI16HinAB (Homo sapiens, UniProt Q16666-2 159-729); test: competition fluorescence anisotropy; unlabelled competitor against 6 nM 24-bp FAM-dsDNA, 1000 nM protein; 160 mM KCl (60 mM KCl for IFI16HinAB); buffer, pH and temperature not given in the available text; conditions: protein: recombinant
AIM2HIN [2] = biological target: T2, AIM2HIN (Homo sapiens, UniProt O14862 144-343); test: fluorescence anisotropy; 160 mM KCl (60 mM KCl for IFI16HinAB); buffer, pH and temperature not given in the available text; conditions: protein: recombinant
T2 sequence: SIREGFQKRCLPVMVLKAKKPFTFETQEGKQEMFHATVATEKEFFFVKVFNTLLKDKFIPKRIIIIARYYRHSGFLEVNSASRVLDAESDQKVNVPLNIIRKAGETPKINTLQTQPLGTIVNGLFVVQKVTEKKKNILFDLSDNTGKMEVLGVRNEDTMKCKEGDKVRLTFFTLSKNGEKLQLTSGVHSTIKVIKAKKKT

AIM2FL [3] = biological target: T3, AIM2FL (Homo sapiens, UniProt O14862 1-343); test: as above; conditions: protein: recombinant
T3 sequence: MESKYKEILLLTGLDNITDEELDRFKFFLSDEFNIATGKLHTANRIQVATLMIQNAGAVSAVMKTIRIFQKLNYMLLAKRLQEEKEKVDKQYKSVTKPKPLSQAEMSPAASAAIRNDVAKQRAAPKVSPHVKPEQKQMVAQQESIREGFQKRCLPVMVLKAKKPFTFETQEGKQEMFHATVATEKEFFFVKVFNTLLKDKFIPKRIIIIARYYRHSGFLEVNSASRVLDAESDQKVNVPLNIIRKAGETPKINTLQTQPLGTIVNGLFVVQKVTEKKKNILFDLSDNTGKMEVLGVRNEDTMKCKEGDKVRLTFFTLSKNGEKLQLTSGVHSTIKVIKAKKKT

IFI16HinAB [4] = biological target: T1, IFI16HinAB; test: as above; conditions: protein: recombinant
IFI16FL [5] = biological target: T4, IFI16FL (Homo sapiens, UniProt Q16666-2 1-729); test: as above; conditions: protein: recombinant; tags: C-terminal His6
T4 sequence (Q16666 other isoform, or with tags, fused parts or gaps): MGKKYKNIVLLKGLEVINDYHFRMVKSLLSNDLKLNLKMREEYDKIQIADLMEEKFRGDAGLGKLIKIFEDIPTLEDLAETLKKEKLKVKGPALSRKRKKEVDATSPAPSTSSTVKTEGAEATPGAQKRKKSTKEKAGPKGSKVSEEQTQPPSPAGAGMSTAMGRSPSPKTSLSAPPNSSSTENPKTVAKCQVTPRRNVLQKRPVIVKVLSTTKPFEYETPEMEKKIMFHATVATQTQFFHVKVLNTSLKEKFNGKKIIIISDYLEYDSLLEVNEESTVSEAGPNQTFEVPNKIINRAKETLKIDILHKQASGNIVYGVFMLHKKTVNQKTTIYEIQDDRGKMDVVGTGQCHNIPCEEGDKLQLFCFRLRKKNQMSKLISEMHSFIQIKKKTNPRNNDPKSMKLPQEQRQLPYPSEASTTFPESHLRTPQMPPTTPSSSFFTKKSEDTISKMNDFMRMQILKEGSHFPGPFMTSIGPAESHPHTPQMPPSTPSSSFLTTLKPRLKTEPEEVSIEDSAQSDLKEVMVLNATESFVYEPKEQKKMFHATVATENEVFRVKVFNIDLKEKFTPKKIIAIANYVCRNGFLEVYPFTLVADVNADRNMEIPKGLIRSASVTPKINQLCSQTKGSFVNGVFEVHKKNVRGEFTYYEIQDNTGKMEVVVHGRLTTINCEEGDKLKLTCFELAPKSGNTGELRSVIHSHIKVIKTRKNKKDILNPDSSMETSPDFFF

IFI16FL [6] = biological target: T4, IFI16FL; test: competition fluorescence anisotropy; unlabelled competitor against 6 nM 24-bp FAM-dsDNA, 500 nM protein; 160 mM KCl (60 mM KCl for IFI16HinAB); buffer, pH and temperature not given in the available text; conditions: protein: recombinant; tags: C-terminal His6
AIM2HIN [7] = biological target: T2, AIM2HIN; test: competition fluorescence anisotropy; unlabelled competitor against 6 nM 60-bp FAM-dsDNA, 400 nM protein; 160 mM KCl (60 mM KCl for IFI16HinAB); buffer, pH and temperature not given in the available text; conditions: protein: recombinant
IFI16HinAB [8] = biological target: T1, IFI16HinAB; test: as above; conditions: protein: recombinant
AIM2FL [9] = biological target: T3, AIM2FL; test: fluorescence anisotropy; 160 mM KCl; 60 mM KCl for IFI16HinAB; FAM probe 3-6 nM (FA) or 20 nM (EMSA); binding buffer pH and temperature not in the material; conditions: protein: recombinant
IFI16FL [10] = biological target: T4, IFI16FL; test: competition; last row of Table S10, presumably against 60-bp FAM-dsDNA; 160 mM KCl; 60 mM KCl for IFI16HinAB; FAM probe 3-6 nM (FA) or 20 nM (EMSA); binding buffer pH and temperature not in the material; conditions: protein: recombinant; tags: C-terminal His6
AIM2FL [11] = biological target: T3, AIM2FL; test: competition fluorescence anisotropy; unlabelled competitor against 6 nM 24-bp FAM-dsDNA, 100 nM protein; 160 mM KCl (60 mM KCl for IFI16HinAB); buffer, pH and temperature not given in the available text; conditions: protein: recombinant
AIM2HIN [12] = biological target: T2, AIM2HIN; test: competition fluorescence anisotropy; unlabelled competitor against 6 nM 24-bp FAM-dsDNA, 625 nM protein; 160 mM KCl (60 mM KCl for IFI16HinAB); buffer, pH and temperature not given in the available text; conditions: protein: recombinant

T1 sequence (Q16666 other isoform, or with tags, fused parts or gaps): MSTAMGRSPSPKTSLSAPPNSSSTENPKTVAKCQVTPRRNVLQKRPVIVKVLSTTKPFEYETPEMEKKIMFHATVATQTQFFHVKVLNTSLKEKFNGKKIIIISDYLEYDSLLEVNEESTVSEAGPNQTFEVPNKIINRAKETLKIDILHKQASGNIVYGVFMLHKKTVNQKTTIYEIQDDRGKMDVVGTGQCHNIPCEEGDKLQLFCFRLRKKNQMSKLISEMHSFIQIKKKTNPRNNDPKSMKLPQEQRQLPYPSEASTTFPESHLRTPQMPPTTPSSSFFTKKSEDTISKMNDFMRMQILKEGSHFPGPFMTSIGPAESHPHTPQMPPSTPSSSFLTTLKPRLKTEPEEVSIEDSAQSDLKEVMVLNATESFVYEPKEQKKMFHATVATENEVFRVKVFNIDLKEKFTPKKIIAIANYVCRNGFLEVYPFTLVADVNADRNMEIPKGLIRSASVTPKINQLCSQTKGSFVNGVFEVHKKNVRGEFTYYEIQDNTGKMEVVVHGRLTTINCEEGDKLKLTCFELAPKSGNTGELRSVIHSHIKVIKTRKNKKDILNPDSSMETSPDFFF

B1: 60-bp DNA:RNA hybrid (DNA:RNA)
DNA: TAAGACACGATGCGATAAAATCTGTTTGTAAAATTTATTAAGGGTACAAATTGCCCTAGC
RNA: GCUAGGGCAAUUUGUACCCUUAAUAAAUUUUACAAACAGAUUUUAUCGCAUCGUGUCUUA
- IC50 (IFI16HinAB [1]): 663 ± 64.6 nM
- Kd (AIM2HIN [2]): 800 ± 100 nM
- Kd (AIM2FL [3]): 40 ± 10 nM
- Kd (IFI16HinAB [4]): 60 ± 10 nM
- Kd (IFI16FL [5]): 35 ± 15 nM
- IC50 (IFI16FL [6]): 239 ± 31.9 nM
- IC50 (AIM2HIN [7]): 350 ± 44 nM
- IC50 (IFI16HinAB [8]): 623 ± 106 nM
- Kd (AIM2FL [9]): 40 ± 10 nM
- IC50 (IFI16FL [10]): 975 ± 48.1 nM
- IC50 (AIM2FL [11]): 19.6 ± 0.44 nM
- IC50 (AIM2HIN [12]): 100 ± 9 nM
